How the values were obtained:
[1] = molecular target: T1, interaction between CIITA and Flag-RFXANK (Homo sapiens, UniProt P33076); assay: CIITA/RFXANK interaction assay, competition with untagged RFXANK; assay type: binding; conditions: FIG. 7
T1 construct: made in house; host or cells: Sf9 insect cells (recombinant baculovirus); CIITA co-infected with a BirA baculovirus
T1 sequence (P33076 1-1130): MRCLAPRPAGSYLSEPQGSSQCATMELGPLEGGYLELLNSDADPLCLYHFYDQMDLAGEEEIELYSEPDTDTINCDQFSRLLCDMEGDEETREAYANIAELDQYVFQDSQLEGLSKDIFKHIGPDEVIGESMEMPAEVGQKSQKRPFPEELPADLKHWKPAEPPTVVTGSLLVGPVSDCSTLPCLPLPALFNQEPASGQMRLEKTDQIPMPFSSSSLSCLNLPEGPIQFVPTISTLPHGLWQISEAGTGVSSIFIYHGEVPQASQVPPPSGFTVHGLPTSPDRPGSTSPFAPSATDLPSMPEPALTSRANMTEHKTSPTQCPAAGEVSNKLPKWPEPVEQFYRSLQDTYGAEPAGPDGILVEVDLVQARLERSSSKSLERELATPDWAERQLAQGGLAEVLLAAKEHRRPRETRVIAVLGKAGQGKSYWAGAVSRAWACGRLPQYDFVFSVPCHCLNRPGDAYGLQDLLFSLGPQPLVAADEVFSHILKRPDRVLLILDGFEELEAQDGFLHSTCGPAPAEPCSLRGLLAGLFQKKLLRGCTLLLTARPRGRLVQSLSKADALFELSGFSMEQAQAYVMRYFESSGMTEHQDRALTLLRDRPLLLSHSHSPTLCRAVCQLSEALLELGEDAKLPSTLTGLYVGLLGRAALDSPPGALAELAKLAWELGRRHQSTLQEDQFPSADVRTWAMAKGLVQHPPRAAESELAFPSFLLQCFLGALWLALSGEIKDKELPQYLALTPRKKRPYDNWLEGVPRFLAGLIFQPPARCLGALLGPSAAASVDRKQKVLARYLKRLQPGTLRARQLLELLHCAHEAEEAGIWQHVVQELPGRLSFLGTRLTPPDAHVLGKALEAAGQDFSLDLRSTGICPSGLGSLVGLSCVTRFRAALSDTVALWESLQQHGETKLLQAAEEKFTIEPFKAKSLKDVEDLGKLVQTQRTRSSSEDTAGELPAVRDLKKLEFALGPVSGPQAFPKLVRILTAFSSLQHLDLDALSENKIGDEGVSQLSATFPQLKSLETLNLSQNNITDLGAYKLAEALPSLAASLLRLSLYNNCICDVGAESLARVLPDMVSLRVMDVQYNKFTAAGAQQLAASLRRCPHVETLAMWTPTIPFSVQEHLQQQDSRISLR
Experimental: Plasmids. The CIITA gene sequence was cloned into a modified pBAC-2 cp vector (Novagen) with a biotinylation tag inserted at the 5′ end of the gene. The RFXANK gene sequence containing a Flag tag at its N-terminus was cloned into a pFBHT vector (Invitrogen). These plasmids were used to generate recombinant baculoviruses according to standard procedures. Protein production: Sf9 cells grown in SF-900II medium (Invitrogen) were infected at MOI of 10 for 72 h before harvesting. To obtain in vivo biotinylated CIITA, Sf9 cells were co-infected with an E. coli biotin ligase expressing baculovirus (BirA gene) at a MOI of 1. Protein were purified using metal chelating affinity chromatography on HiTrap chelating column (Pharmacia). Purified fractions were pooled and quantified using ESL protein quantification kit (Roche) and the extent of CIITA biotinylation was estimated by pulldown experiments with Streptavidin-coated magnetic beads followed by PAGE analysis.
Assay. […] Wells were washed 5 times with 200 μl of wash solution (PBS; 0.05% Tween 20) and the adequate substrates for HRP were added to the well for either colorimetry, fluorescence or luminescence detection. […]

Biotinylated-CIITA = molecular target: T2, Biotinylated-CIITA (UniProt P33076 1-1130, biotin on the biotinylation tag (in vivo biotinylation by co-expressed E. coli biotin ligase BirA; level close to 100%)); assay: solid-phase plate assay: biotinylated CIITA on a streptavidin well, Flag-RFXANK detected with M2:HRP, colorimetric; assay and negative control each performed 48 times
T2 construct: Made in Sf9 cells from a modified pBAC-2cp baculovirus vector; also called recombinant biotinylated-CIITA; not shown: biotinylation tag inserted at the 5' end of the gene
T2 sequence (looked up): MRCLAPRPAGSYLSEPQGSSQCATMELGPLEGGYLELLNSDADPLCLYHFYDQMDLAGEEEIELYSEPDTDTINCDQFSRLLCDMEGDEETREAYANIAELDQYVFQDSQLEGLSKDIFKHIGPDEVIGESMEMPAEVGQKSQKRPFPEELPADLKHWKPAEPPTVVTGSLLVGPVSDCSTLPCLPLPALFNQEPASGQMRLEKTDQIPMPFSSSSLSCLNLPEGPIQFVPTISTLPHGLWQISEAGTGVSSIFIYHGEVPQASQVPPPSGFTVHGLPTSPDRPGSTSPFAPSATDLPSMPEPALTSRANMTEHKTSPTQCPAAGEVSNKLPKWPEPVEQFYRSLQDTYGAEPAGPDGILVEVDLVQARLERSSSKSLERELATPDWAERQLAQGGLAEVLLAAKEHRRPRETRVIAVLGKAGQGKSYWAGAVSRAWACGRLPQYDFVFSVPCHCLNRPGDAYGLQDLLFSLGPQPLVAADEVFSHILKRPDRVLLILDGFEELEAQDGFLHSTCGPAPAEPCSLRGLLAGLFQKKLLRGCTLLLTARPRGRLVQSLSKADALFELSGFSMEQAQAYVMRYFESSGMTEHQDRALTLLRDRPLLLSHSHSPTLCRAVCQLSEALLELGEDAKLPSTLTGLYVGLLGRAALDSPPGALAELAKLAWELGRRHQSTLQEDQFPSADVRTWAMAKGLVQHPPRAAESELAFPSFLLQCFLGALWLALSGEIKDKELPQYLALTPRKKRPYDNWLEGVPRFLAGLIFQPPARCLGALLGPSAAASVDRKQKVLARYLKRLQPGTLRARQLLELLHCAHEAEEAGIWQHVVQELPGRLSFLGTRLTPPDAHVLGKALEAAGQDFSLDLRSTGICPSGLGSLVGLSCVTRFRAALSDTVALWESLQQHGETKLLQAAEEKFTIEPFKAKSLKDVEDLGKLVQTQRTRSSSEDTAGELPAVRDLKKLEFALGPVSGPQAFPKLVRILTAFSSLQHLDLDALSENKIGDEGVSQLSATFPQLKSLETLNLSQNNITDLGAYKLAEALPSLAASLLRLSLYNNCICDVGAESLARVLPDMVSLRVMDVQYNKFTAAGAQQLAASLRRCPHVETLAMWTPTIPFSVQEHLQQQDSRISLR
Experimental: Assay. Biotinylated-CIITA (0.5 μg) and 0.8 μg of Flag-RFXANK in 100 μl of assay buffer (50 mM Hepes pH7.8; 10% glycerol; 5 mM MgCl₂; 0.1 mM EDTA; 0.01% NP-40; 200 mM KCl; 0.5% BSA; 0.1% Tween 20; 2 mM DTT) were incubated in a streptavidin-coated microwell for 2 h at room temperature. Wells containing no protein, only biotinylated CIITA or Flag RFXANK were included as controls. Wells were washed 5 times with 200 μl of wash solution (PBS; 0.05% Tween 20). 100 μl of Assay Buffer containing 0.5 μg/ml M2:HRP antibody (Sigma) was added to each well and incubated for 1 h at room temperature. Wells were washed 5 times with 200 μl of wash solution (PBS; 0.05% Tween 20) and the adequate substrates for HRP were added to the well for either colorimetry, fluorescence or luminescence detection.
To examine its reproducibility, the assay and negative control were performed 48 times. […] Increasing amounts of RFXANK were added to the wells containing biotinylated CIITA and Flag-RFXANK in the same assay as described above.

B1: RFXANK having an N-terminal Flag tag (Flag-RFXANK) (other, UniProt O14593 1-260, looked up)
chain: MELTQPAEDLIQTQQTPASELGDPEDPGEEAADGSDTVVLSLFPCTPEPVNPEPDASVSSPQAGSSLKHSTTLTNRQRGNEVSALPATLDSLSIHQLAAQGELDQLKEHLRKGDNLVNKPDERGFTPLIWASAFGEIETVRFLLEWGADPHILAKERESALSLASTGGYTDIVGLLLERDVDINIYDWNGGTPLLYAVRGNHVKCVEALLARGADLTTEADSGYTPMDLAVALGYRKVQQVIENHILKLFQSNLVPADPE
notes: not shown: Flag tag at the N-terminus
[1]; equivalent amounts of Flag-RFXANK and RFXANK
  reduction of signal of the CIITA/Flag-RFXANK interaction: approximately 50%
[1]; increasing amounts of RFXANK added to wells containing biotinylated CIITA and Flag-RFXANK
  competition of Flag-RFXANK for binding to CIITA: specifically competed by RFXANK for binding to CIITA in a dose-dependent manner
Biotinylated-CIITA
  signal to background ratio (S/B): 11.8

Source: patent US20050260661A1, “Assays for the identification of modulators of MHC class II expression” (priority 2004, published 2005)
